Measurements taken from patent publication US20250082758A1.
Bridge positions count the residues as written; N and C are the ends. Ends that are not written are not given here. I, II: the chains in the order shown. * marks the point of attachment. Formula (I) = human serum albumin binder 2-[2-[2-[2-[2-[2-[2-(carbonylmethoxy)ethoxy]ethylamino]-2-oxo-ethoxy]ethoxy]ethylamino]-2-oxo-ethoxy]-5-(18-carboxyoctadecyl)benzoic acid, amide to Lys epsilon-N, O=C(O)CCCCCCCCCCCCCCCCCCc1ccc(OCC(=O)NCCOCCOCC(=O)NCCOCCOCC(=O)*)c(C(=O)O)c1

Experiments:
[1] = target: human insulin receptor isoform B (human) (UniProt P06213); assay: SPA competition with [125I]-labelled human insulin, membranes of CHO cells overexpressing IR
Sequence of UniProt P06213 (P06213 28-1382): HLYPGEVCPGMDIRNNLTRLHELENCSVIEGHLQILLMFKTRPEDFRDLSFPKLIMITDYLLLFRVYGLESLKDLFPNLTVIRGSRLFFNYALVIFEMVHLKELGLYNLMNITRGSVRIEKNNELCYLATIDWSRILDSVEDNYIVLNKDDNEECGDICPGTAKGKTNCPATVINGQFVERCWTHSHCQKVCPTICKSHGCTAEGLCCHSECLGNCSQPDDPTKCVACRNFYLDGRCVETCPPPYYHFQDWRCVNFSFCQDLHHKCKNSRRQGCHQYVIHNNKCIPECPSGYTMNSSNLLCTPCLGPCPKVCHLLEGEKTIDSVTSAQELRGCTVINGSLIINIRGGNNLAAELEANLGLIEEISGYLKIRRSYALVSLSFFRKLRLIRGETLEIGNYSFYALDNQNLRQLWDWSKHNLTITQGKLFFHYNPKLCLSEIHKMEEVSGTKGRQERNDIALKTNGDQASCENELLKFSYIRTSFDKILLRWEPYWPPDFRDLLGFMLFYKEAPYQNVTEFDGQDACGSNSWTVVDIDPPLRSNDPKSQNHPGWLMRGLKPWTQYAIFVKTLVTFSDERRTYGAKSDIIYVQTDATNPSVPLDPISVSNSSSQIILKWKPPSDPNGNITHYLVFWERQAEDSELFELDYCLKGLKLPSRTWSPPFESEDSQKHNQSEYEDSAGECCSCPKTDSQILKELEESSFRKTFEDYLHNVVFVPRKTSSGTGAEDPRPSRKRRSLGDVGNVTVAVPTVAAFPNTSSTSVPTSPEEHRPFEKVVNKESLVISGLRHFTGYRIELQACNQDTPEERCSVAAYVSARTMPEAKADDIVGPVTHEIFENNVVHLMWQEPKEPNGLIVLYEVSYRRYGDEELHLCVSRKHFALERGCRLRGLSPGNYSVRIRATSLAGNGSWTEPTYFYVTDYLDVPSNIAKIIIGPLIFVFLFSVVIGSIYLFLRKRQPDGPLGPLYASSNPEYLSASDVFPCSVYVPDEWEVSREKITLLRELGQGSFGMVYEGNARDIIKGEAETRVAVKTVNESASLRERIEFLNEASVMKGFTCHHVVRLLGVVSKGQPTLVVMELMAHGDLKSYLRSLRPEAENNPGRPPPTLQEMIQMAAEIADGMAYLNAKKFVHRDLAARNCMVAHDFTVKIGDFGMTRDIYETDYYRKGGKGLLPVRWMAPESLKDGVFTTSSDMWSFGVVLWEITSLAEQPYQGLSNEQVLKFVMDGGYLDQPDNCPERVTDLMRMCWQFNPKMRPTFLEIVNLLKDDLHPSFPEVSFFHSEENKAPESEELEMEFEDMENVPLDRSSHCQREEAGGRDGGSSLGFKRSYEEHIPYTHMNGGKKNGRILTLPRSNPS

[2] = target: human insulin receptor isoform B (human) (UniProt P06213); assay: cell-based or functional assay

B1: Conjugate 1: Arg(A5)Glu(A14)Arg(A18)Gly(A21)Glu(B16)His(B25)Arg(B27)Arg(B31)-insulin with the human serum albumin binder of Formula (I) on Lys(B29) (ligand)
chain 1: GIVERCCTSICSLEQLERYCG
chain 2: FVNQHLCGSHLVEALELVCGERGFHYRPK(Formula (I))TR
modifications: disulfide I:6-I:11, I:20-II:19, I:7-II:7
With B1 the Insulin receptor B binding affinity relative to human insulin [1] was less than 2%, the Insulin-receptor binding affinity relative to human insulin (relative to human insulin) [1] was 0.01 and the Autophosphorylation activity (relative to human insulin) (relative to human insulin) [2] was 0.07.
